# Numbering of substitutions follows the chain as printed.
# B1: CD3_WT (antibody, human IgG1, lambda)
# heavy: not shown
# light: QAVVTQEPSLTVSPGGTVTLTCRSSTGAVTTSNYANWVQQKPGQAPRGLIGGTNKRAPWTPARFSGSLLGDKAALTLSGAQPEDEAEYFCALWYSNLWVFGGGTKLTVLGQPKAAPSVTLFPPSSEELQANKATLVCLISDFYPGAVTVAWKADSSPVKAGVETTTPSKQSNNKYAASSYLSLTPEQWKSHRSYSCQVTHEGSTVEKTVAPTECS
# notes: hIgG1, no Fc mutation; produced in HEK-293T-17SF; also called parental anti-CD3 IgG1; anti-CD3 monospecific hIgG1
# B2: CD3_1_YTE (antibody, human IgG1, lambda)
# heavy: EVQLVESGGGLVQPGGSLKLSCAASGFTFNTYAMNWVRQASGKGLEWVGRIRSKYNNYATYYADSVKDRFTISRDDSKSTLYLQMNSLKTEDTAVYYCVRHGNFGNSYVSWFAYWGQGTLVTVSSASTKGPSVFPLAPSSKSTSGGTAALGCLVKDYFPEPVTVSWNSGALTSGVHTFPAVLQSSGLYSLSSVVTVPSSSLGTQTYICNVNHKPSNTKVDKRVEPKSCDKTHTCPPCPAPELCCHPRVFLFPPKPKDTLYITREPEVTCVVTGLRDEDPEVKFNWYVDGVEVHNAKTKPREEQYCGCYSVVSVLTVLHQDWLNGKEYKCKVSNKALPAPIEKTISKAKGQPREPQVYTLPPSRDELTKNQVSLTCLVKGFYPSDIAVEWESNGQPENNYKTTPPVLDSDGSFFLYSKLTVDKSRWQQGNVFSCSVMHEALHNHYTQKSLSLSPGK
# light: B1 light
# notes: hIgG1
# B3: CD3_1 (antibody, human IgG1, lambda)
# heavy: B2 heavy with Y260M, T262S, E264T
# light: B1 light
# notes: hIgG1
# B4: CD3_6 (antibody, human IgG1, lambda)
# heavy: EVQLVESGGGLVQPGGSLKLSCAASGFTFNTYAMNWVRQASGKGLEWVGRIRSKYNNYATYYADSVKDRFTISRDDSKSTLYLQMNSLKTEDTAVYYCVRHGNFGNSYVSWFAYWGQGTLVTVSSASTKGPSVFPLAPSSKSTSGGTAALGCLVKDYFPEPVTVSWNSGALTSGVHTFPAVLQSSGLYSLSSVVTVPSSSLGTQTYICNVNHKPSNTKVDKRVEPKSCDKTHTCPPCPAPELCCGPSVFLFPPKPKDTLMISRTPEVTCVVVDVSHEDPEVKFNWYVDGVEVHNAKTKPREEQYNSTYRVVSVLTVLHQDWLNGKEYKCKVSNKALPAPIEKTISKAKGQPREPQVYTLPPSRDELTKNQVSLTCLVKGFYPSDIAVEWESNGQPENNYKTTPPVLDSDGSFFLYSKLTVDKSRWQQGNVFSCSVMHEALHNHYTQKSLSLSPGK
# light: B1 light
# notes: hIgG1
# B5: CD3_5_YTE (antibody, human IgG1, lambda)
# heavy: B2 heavy with H245G, R247S, T272V, G273D, L274V, R275S, D276H, G306S, S309R
# light: B1 light
# notes: hIgG1
# B6: CD3_7 (antibody, human IgG1, lambda)
# heavy: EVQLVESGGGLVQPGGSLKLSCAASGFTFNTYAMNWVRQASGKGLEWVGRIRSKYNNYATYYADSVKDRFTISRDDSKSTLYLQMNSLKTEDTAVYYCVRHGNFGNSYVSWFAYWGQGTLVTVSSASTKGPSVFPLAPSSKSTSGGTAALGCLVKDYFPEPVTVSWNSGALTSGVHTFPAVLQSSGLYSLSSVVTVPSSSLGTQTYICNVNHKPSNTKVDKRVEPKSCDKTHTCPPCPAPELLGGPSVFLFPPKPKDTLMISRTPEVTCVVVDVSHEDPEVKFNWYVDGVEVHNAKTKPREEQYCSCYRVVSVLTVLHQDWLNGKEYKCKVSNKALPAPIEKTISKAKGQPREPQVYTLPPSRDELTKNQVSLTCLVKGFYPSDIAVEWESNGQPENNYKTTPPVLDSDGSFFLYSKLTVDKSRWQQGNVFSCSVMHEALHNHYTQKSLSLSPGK
# light: B1 light
# notes: hIgG1
# B7: CD3_DANAPA (antibody, human IgG1, lambda, N297A)
# heavy: EVQLVESGGGLVQPGGSLKLSCAASGFTFNTYAMNWVRQASGKGLEWVGRIRSKYNNYATYYADSVKDRFTISRDDSKSTLYLQMNSLKTEDTAVYYCVRHGNFGNSYVSWFAYWGQGTLVTVSSASTKGPSVFPLAPSSKSTSGGTAALGCLVKDYFPEPVTVSWNSGALTSGVHTFPAVLQSSGLYSLSSVVTVPSSSLGTQTYICNVNHKPSNTKVDKRVEPKSCDKTHTCPPCPAPELLGGPSVFLFPPKPKDTLMISRTPEVTCVVVAVSHEDPEVKFNWYVDGVEVHNAKTKPREEQYASTYRVVSVLTVLHQDWLNGKEYKCKVSNKALAAPIEKTISKAKGQPREPQVYTLPPSRDELTKNQVSLTCLVKGFYPSDIAVEWESNGQPENNYKTTPPVLDSDGSFFLYSKLTVDKSRWQQGNVFSCSVMHEALHNHYTQKSLSLSPGK
# light: B1 light
# notes: hIgG1; silencing benchmark
# B8: CD3_6_YTE (antibody, human IgG1, lambda)
# heavy: B7 heavy with L243C, G244C, M260Y, S262T, T264E, A273D, A305N, A337P
# light: B1 light
# notes: hIgG1
# B9: CD3_7_YTE (antibody, human IgG1, lambda)
# heavy: B7 heavy with M260Y, S262T, T264E, A273D, A305C, T307C, A337P
# light: B1 light
# notes: hIgG1
# B10: CD3_WT_YTE (antibody, human IgG1, lambda)
# heavy: B7 heavy with M260Y, S262T, T264E, A273D, A305N, A337P
# light: B1 light
# notes: hIgG1
# B11: CD3_9 (antibody, human IgG1, lambda)
# heavy: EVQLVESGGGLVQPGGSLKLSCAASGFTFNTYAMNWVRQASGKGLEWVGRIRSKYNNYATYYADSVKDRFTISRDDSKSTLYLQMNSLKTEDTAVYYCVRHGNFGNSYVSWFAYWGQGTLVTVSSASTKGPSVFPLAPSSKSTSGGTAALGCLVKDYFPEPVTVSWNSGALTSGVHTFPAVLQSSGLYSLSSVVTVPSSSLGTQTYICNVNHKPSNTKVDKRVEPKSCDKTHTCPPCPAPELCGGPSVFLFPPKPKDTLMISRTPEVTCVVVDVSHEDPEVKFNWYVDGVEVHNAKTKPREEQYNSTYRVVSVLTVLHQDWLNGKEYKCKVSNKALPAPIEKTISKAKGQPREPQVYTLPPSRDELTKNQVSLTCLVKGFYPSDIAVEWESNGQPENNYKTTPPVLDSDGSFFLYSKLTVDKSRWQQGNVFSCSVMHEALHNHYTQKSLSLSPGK
# light: B1 light
# notes: hIgG1
# B12: CD3_11_YTE (antibody, human IgG1, lambda)
# heavy: B7 heavy with M260Y, S262T, T264E, A273D, A305C, A337P
# light: B1 light
# notes: hIgG1
# B13: CD3_8 (antibody, human IgG1, lambda)
# heavy: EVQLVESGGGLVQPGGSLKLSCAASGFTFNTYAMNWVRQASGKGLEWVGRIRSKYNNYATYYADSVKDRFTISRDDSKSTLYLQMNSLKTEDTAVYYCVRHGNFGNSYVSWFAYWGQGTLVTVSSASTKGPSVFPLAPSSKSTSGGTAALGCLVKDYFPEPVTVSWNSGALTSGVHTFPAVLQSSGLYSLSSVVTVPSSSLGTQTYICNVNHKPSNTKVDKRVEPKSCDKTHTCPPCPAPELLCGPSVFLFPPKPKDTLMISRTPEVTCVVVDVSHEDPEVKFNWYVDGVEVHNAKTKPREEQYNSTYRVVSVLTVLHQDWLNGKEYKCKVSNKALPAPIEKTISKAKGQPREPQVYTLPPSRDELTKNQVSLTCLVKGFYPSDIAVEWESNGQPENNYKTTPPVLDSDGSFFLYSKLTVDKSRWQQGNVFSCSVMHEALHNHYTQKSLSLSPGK
# light: B1 light
# notes: hIgG1
# B14: CD3_9_YTE (antibody, human IgG1, lambda)
# heavy: B7 heavy with L243C, M260Y, S262T, T264E, A273D, A305N, A337P
# light: B1 light
# notes: hIgG1
# B15: CD3_10 (antibody, human IgG1, lambda)
# heavy: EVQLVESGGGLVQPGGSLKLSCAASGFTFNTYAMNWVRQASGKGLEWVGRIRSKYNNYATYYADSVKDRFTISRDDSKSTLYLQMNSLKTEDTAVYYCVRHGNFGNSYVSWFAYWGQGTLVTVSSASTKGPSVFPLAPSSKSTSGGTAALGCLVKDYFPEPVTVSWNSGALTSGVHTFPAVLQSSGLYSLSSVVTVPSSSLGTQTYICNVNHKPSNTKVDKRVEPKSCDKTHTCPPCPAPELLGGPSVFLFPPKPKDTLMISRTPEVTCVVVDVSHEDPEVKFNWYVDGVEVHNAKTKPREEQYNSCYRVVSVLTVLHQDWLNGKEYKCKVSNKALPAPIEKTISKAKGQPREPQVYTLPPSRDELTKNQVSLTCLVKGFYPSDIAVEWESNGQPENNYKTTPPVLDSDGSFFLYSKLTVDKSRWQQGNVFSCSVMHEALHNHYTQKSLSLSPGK
# light: B1 light
# notes: hIgG1
# Molecular target: T1, hCD3epsilon-FC antigen (human, UniProt P07766 23-126)
# T1 construct: immobilized by amine coupling on CM5; also called human CD3epsilon
# Assay: SPR Biacore T200; hCD3epsilon-FC amine-coupled on CM5, IgG as analyte
# Parameters: unit not given here
# Method: (§1) A CM5 sensor chip (Sensor Chip SA, GE Healthcare Life Sciences) was used to immobilize hCD3epsilon-FC antigen by amine coupling. Then, engineered anti-CD3 hIgG1 were used as the analyte.
# (§2) Binding data were acquired by subsequent injection of analyte dilution series on the reference and measuring flow cells. Zero concentration samples (running buffer only) were included to allow double referencing during data evaluation. For data evaluation, doubled referenced sensorgrams were analyzed by applying a 1:1 binding model analysis to generate the equilibrium dissociation constant (KD). Binding constant described Table 7 are considered as apparent KD since immunoglobulins used as analyte are bivalent for the immobilized antigen. In addition, maximum response reached during the experiment was monitored. Maximum response describes the binding capacity of the surface in terms of the response at saturation. Finally, measured maximum responses were normalized to the one measured using parental immunoglobulin (not engineered).
# T1 sequence (P07766 23-126 limits assumed): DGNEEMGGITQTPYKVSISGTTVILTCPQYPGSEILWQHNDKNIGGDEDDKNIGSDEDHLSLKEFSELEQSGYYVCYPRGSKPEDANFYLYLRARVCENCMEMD
row,Binder,Maximum response at 125 nM hIgG1
1,B1,392
2,B2,371
3,B3,371
4,B4,338
5,B5,322
6,B6,367
7,B7,392
8,B8,340
9,B9,367
10,B10,342

# Molecular target: hC1q (human, UniProt P02745 23-245; P02746 28-253; P02747 29-245)
# Assay: SPR Biacore T200; IgG amine-coupled on CM5, hC1q as analyte; response normalized to parental (=100)
# Method: (§3) Kinetics and binding capacity were measured on a BIAcore® T200 instrument (GE Healthcare, Glattbrugg, Switzerland) at room temperature, with proteins diluted in running buffer 10 mM NaP, 150 mM NaCl, 0.05% Tween 20, pH7.6. A CM5 sensor chip (Sensor Chip SA, GE Healthcare Life Sciences) was used to immobilized engineered immunoglobulins by amine coupling. Then, recombinant human hFcγR1a, or recombinant human hFcγR3a (F158V), or recombinant human hFcRn, or hC1q was used as the analyte.
# (§4) Binding data were acquired by subsequent injection of analyte dilution series on the reference and measuring flow cells. Zero concentration samples (running buffer only) were included to allow double referencing during data evaluation. For data evaluation, doubled referenced sensorgrams were analyzed and the maximum response reached during the experiment was monitored. Maximum response describes the binding capacity of the surface in terms of the response at saturation. Finally, measured maximum responses were normalized to the one measured using parental immunoglobulin (not engineered).
# Chain of hC1q (P02745 23-245 limits assumed, chain 1 of 3): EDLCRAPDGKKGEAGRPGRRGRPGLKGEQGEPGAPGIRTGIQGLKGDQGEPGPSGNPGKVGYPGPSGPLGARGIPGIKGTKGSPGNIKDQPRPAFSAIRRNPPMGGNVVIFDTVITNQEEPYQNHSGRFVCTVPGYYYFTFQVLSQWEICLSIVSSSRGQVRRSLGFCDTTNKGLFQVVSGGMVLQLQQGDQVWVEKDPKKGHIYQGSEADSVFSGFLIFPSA
# Chain of hC1q (P02746 28-253 limits assumed, chain 2 of 3): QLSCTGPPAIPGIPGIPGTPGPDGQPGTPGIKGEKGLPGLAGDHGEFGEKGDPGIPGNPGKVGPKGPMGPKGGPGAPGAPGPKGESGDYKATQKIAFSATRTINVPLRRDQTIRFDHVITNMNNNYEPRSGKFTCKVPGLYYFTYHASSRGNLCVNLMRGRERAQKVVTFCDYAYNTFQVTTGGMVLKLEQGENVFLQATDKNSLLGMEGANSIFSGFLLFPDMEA
# Chain of hC1q (P02747 29-245 limits assumed, chain 3 of 3): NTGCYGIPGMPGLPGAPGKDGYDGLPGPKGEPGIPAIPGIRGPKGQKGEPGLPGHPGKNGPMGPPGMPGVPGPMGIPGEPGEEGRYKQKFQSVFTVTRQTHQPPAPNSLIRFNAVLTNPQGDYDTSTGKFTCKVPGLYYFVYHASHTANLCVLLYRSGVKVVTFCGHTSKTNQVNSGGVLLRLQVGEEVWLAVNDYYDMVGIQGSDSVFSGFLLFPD
row,Binder,Maximum response at 20 nM hC1q (RU)
1,B1,100
2,B3,5
3,B4,33
4,B11,10
5,B6,2
6,B12,1
7,B7,1
8,B13,1
9,B14,4
10,B15,3

# Molecular target: T2, recombinant human hFcRn (human, UniProt P55899 24-297; P61769 21-119)
# T2 construct: FcRn is normally a heterodimer with it
# Assay: SPR Biacore T200; IgG amine-coupled on CM5, hFcRn as analyte; response normalized to parental (=100)
# Method: as §3, §4
# T2 sequence (P55899 24-297 limits assumed, chain 1 of 2): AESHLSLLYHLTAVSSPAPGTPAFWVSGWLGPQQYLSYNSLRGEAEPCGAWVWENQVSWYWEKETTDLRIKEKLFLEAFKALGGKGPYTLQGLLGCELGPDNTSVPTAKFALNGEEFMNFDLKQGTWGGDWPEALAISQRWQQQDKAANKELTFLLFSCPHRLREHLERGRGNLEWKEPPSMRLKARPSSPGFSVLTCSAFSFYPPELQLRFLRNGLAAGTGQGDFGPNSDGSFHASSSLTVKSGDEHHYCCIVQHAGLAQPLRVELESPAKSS
# T2 sequence (P61769 21-119 limits assumed, chain 2 of 2): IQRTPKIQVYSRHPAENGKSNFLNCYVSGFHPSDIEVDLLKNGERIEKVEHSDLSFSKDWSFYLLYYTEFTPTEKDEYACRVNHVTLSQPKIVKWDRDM
row,Binder,Maximum response at 1840 nM hFcRn (RU)
1,B1,100
2,B2,290
3,B4,136
4,B11,122
5,B5,340
6,B6,80
7,B12,230
8,B8,720
9,B13,126
10,B9,284
11,B14,696
12,B15,126
13,B10,586

# Molecular target: T3, recombinant human hFcγR1a (human, UniProt P12314 16-288, limits assumed)
# T3 construct: recombinant, analyte in SPR; also called FcγRI
# Assay: SPR Biacore T200; IgG amine-coupled on CM5, receptor as analyte; response normalized to parental (=100);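 note: measured at room temperature in pH 7.6 phosphate buffer with Tween 20, double-referenced sensorgrams, maximum response taken as binding capacity at saturation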
# Method: as §3, §4
# T3 sequence (P12314 16-288 limits assumed): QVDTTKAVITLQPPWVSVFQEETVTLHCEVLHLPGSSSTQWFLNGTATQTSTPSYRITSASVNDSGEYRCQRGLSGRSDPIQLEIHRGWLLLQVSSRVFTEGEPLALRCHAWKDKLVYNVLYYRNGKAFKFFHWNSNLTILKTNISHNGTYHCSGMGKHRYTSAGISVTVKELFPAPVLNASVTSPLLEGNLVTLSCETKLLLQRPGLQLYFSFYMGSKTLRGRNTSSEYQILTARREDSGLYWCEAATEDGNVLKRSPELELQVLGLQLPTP
row,Binder,Maximum response at 100 nM hFcγR1a (RU)
1,B1,100
2,B2,6
3,B3,2
4,B4,13
5,B11,2
6,B5,7
7,B6,21
8,B12,12
9,B7,6
10,B8,10
11,B13,2
12,B9,31
13,B14,2
14,B15,18
15,B10,97

# Molecular target: T4, recombinant human hFcγR3a (F158V) (human, UniProt P08637 17-208)
# T4 construct: also called FcγRIII
# Assay: as above
# Method: as §3, §4
# T4 sequence (P08637 17-208 F176V): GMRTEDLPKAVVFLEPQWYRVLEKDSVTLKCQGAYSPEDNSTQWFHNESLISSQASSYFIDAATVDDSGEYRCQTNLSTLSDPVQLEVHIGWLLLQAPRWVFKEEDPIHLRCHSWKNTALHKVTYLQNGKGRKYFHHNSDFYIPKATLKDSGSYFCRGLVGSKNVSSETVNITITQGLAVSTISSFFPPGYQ
row,Binder,Maximum response at 300 nM hFcγR3a F158V (RU)
1,B1,100
2,B2,20
3,B3,10
4,B4,17
5,B5,17
6,B6,5
7,B7,10
8,B8,15
9,B9,19
10,B10,71

# Molecular target: T1, hCD3epsilon-FC antigen
# Assay: SPR Biacore T200; hCD3epsilon-FC amine-coupled on CM5, IgG as analyte; 1:1 model, apparent KD (bivalent analyte)
# Method: as §1, §2
row,Binder,Kd [nM]
1,B1,2.32
2,B2,2.09
3,B3,2.06
4,B4,2.38
5,B5,3.74
6,B6,2.27
7,B7,3.27
8,B8,2.42
9,B9,2.31
10,B10,2.34
